Assay results from paper PMC3942423 (Nature chemical biology, 2009).

Legend:
[1] = substrate: OC[C@H]1O[C@H](O[C@@H]2[C@H](O)[C@@H](O)O[C@H](CO)[C@H]2O)[C@@H](O)[C@@H](O)[C@@H]1O; experiment: purified protein, by the assay type; details: other: most active mannobiose substrate, pH 7.0, 37.0 °C
[2] = substrate: O=[N+]([O-])c1ccc(O[C@H]2O[C@H](CO)[C@@H](O)[C@H](O)[C@@H]2O)cc1; experiment: 4NP-Man hydrolysis kinetics; assay type: biochemical, Bacteroides thetaiotaomicron; details: other: substrate 4NP-Man
[3] = substrate: OC[C@H]1O[C@H](O[C@H]2[C@@H](O)[C@H](O)[C@@H](CO)O[C@@H]2O)[C@@H](O)[C@@H](O)[C@@H]1O; experiment: mannobiose hydrolysis kinetics; assay type: biochemical, Bacteroides thetaiotaomicron; details: other: most active mannobiose substrate

B1: Bt1769 (Bacteroides thetaiotaomicron VPI-5482) (protein)
chain: CNGSLQTADRTPVDYVNPYIGNISHLLVPTFPTIQLPNSMLRVYPERADYTSELLKGLPLIVTNHRERSAFNFSPYQGEKLRPVITYNYDNEHITPYSFDVELDDNRMKAEYALSHQSAIYRITYEADKPAYLIVNSRNGSIHANENFISGRQQLNDNTNVYVYIEAQEKPISAGILENGTIETSKDNAEGANACAAWRFADGTTTVNLRYGISFISEEQAEKNLHRELKDYNIKALAEAGRQIWNETLGRIQVEGGTEDDKTVFYSSFYRTFERPICMSEGGRYFSAFDGKVHEDNGTPFYTDDWIWDTYRAAHPLRTLIDQQKEEDIIASYLRMAEQMGNMWMPTFPEVTGDTRRMNSNHAVATVADALAKGLKVDTAKAYEACRKGIEEKTLAPWSGAPAGWLDNFYRENGYIPALRVDEPENDPNVHPFEKRQPVAVTLGTSYDQWCLSRIAQALNKKEEAEYYLKCSYNYRNLYNKETAFFHPKDKEGQWIEPFDYRFPGGMGAREYYGENNGWVYRWDVPHNVADLISLMGGNEQFIANLDRTFTEPLGRSKYAFYAKLPDHTGNVGQFSMANEPSLHVPYLYNYAGQPWKTQKRIRQMLKTWFRNDLMGIPGDEDGGGMTSFVVFSSLGFYPVTPGLPAYTIGSPLFTDAKIRLSNGAVFEIEAKNASTDNKYIQSATLNGKEWNKSWFSHDDLMSGGKLVLVMGNKPNKTWASGAEDVPPSLEIK
[1]; enzyme Bt1769
  Km: 1300 ± 140 µM
  kcat: 63.3 s⁻¹
  kcat/Km: 48300 M⁻¹ s⁻¹

B2: Bt3858 (Bacteroides thetaiotaomicron VPI-5482) (protein)
chain: HTDQTPTKDFVDYVNPYIGNISHLLVPTYPTVHLPNSMLRVYPERGDYTSDRVNGLPVVVTSHRGSSAFNLSPVQGEVSRPIVSYSYDLENITPYSYSVYLDEADIQVEYAPSHQAGIYHISFGTEGDNALVVNTKNGKLVAEEKGVSGYQVIDNTPTKIYLYLETSQLPLRKGVLADGKVDMESKEGSAIALYYGSEKNLNLRYGISFISAEQAKKNLQRDITTYDVKAVADAGRRIWNKTLGKIVIEGGSEDEKEIFYTSLYRTYERMINLSEDGKYYSAFDGKIHEDGGVPFYTDDWIWDTYRATHPLRILIEPQKELDMIRSYIRMAEQSDRRWMPTFPEVTGDSHRMNGNHAVAVIWDAYCKGLKDFDLEAAYEACKGAITEKTLLPWLRCPLTELDKFYQEKGFFPALNPGEEETCKAVHSFERRQAVAVMLGNCYDNWCLAQIARTLNKTDDYKKFMRMSYTYRNVYNAETGFFHPKNKDGKFIEPFDYRYSGGQGARGYYGENNGWIYRWDVQHNPADLIALMGGQASFIERLNQTFNEPLGRSKFDFYHQLPDHTGNVGQFSMANEPCLHIPYLYNYAGQPWMTQKRIRVLLNQWFRNDLMGVPGDEDGGGMTAFVVFSMMGFYPVTPGSPTYNIGSPVFQSAKMEVGDGHYFEIIAENYAPDHKYIQSATLNGTPWNKPWFSHADIQNGGRLVLQMGDKPNKKWGIASDAVPPSSESLPE
[2]; enzyme Bt3858, pH 7.0
  Km: 270 ± 65 µM
  kcat: 0.000417 ± 1.67e-05 s⁻¹
  kcat/Km: 1.57 M⁻¹ s⁻¹
[1]; enzyme Bt3858
  Km: 1400 ± 170 µM
  kcat: 40 s⁻¹
  kcat/Km: 28300 M⁻¹ s⁻¹

B3: Bt3990 (Bacteroides thetaiotaomicron VPI-5482) (protein)
chain: KDWTQYVNPLMGSQSTFELSTGNTYPAIARPWGMNFWTPQTGKMGDGWQYTYTANKIRGFKQTHQPSPWINDYGQFSIMPIVGQPVFDEEKRASWFAHKGEVATPYYYKVYLAEHDIVTEMTPTERAVLFRFTFPENDHSYVVVDAFDKGSYIKIIPEENKIIGYTTRNSGGVPENFKNYFIIEFDKPFTYKATVENGNLQENVAEQTTDHAGAIIGFKTRKGEQVNARIASSFISFEQAAANMNELGKDNIEQLAQKGKDAWNQVLGKIEVEGGNLDQYRTFYSCLYRSLLFPRKFYELDANGQPIHYSPYNGQVLPGYMFTDTGFWDTFRCLFPLLNLMYPSVNKEMQEGLINTYLESGFFPEWASPGHRGCMVGNNSASILVDAYMKGVKVDDIKTLYEGLIHGTENVHPEVSSTGRLGYEYYNKLGYVPYDVKINENAARTLEYAYDDWCIYRLAKELKRPKKEISLFAKRAMNYKNLFDKESKLMRGRNEDGTFQSPFSPLKWGDAFTEGNSWHYTWSVFHDPQGLIDLMGGKEMFVTMMDSVFAVPPIFDDSYYGQVIHEIREMTVMNMGNYAHGNQPIQHMIYLYDYAGQPWKAQYWLRQVMDRMYTPGPDGYCGDEDNGQTSAWYVFSALGFYPVCPGTDEYVMGTPLFKKATLHFENGNSLVIDAPNNSTENFYIDSMSFNGADHTKNYLRHEDLFKGGTIKVDMSNRPNLNRGTKEEDMPYSFSKE
[2]; enzyme Bt3990, pH 7.0
  Km: 4200 ± 420 µM
  kcat: 0.0933 ± 0.00467 s⁻¹
  kcat/Km: 21.7 M⁻¹ s⁻¹
[3]; enzyme Bt3990, pH 7.0
  Km: 760 ± 110 µM
  kcat: 86.7 ± 5 s⁻¹
  kcat/Km: 113000 M⁻¹ s⁻¹

B4: Bt3962 (Bacteroides thetaiotaomicron VPI-5482) (protein)
chain: QKQPVDYVNPLMGTDSKISLSNGNTYPAIALPWGMNFWMPQTGKMGDGWAYTYASDKIRGFKQTHQPSPWINDYGQFSIMPMTKQLKIDQDSRASWFSHKAEKATPYYYSVYLSEYNMTTEIAPTERCAYFRFTFPEASDAYVVVDAFDRGSYVKVIPEENKIVGYTTRNSGGVPQNFRNYFVIEFDKPFTFNKVWADYHLVETHLELQSNHVGAAIGFSTKKGEQVHAKVASSFISPEQAELNLKEIGNKTFEQTKEAGRKAWNDVLGRIKVEDDDENRMRTFYSCLYRSVLFPRMFHEVNAKGETVHYSPYNGEIRPGYMFTDTGFWDTFRCLFPFVNLIYPSMGEKMQEGLLNTYLESGFFPEWASPGHRGCMVGNNSASVVADAFMKNVTKADAEKMYEGLLKGANSVHPRVSTTGRRGYEYYNKLGYVPYDVKINENAARTLEYAYDDWCIYRMGEKLGRPAEELELYKSRSQNYRNLFDPETKLMRGKNADGTFQTPFNPFKWGDAFTEGNSWHYTWSVFHDVQGLADLMGGRKMFVSMLDSVFNLPPIFDDSYYGGVIHEIREMEIANMGNYAHGNQPIQHMIYLYNYAGEPWKAQYWLREVMNRLYFATPDGYCGDEDNGQTSAWYVFTALGFYPVCPGSNEYVMGAPYFKKATITLENGKKLEISAPKNSDANRYIRSLNYNGKNYTKNYLNHFDLLKGGRLVFDMDNKPNKGRGINESDFPYSFSRDNK
[2]; enzyme Bt3962, pH 7.0
  Km: 5000 ± 840 µM
  kcat: 0.283 ± 0.0267 s⁻¹
  kcat/Km: 56.7 M⁻¹ s⁻¹
[3]; enzyme Bt3962, pH 7.0
  Km: 430 ± 52 µM
  kcat: 13.7 s⁻¹
  kcat/Km: 31700 M⁻¹ s⁻¹

B5: Bt3773 (Bacteroides thetaiotaomicron VPI-5482) (protein)
chain: KQDYSKSEGLLQYVDPYIGSGFHGHVFVGTSVPYGMVQLGPNNIHKGWDWCSGYHYSDSILIGFSHTHLSGTGCTDLGDILIMPLNEIRTPRGNQDDIRDGYASKYSHDNEIARPEYYSLILDRYNIKAELTATDRVGFHRYTYPEGKPVSILIDLREGNGSNAYDSYIRKVDDYTVEGYRYVRGWSPSRKVYFVLKSDQKIEKFTAYDDNTPKLWDQLKVESVKSVLTFGNVKEVKIKVAISSVSCDNAAMNLQAELSHWDFDKVVKMSSDRWNKQLDKMTVESDDEAAKRVFYTAHYHTMIAPTLYCDVNGEYRGMNDMIYTDPKKANYTTLSLWDTYRALNPLMTIIQPEMVDNVINSMLSIYRQQDKLPIWPLMSGETNCMPGYSSVPVIADAYLKGFTGFDAEEALTAMKATATYEGQNGVPYVMAKGYIPADKIHEATSIAMEYAVDDWGIAAMAQKMGKTADYETFSKRAHYYKNYFDSSIHFIRPKLEDGSWRTPYDPARSIHGVGDFCEGNGWQYTFFAPQDPYGLISLFGGDKPFTSKLDSFFTNNDSMGEGASSDITGLIGQYAHGNEPSHHIAYLYTYAGEQWKTAEKVRFIMSDFYTDQPDGIIGNEDCGQMSAWYLLSAMGFYQVNPSDGVFAFGSPRFKKIEVKVRGGKVFTVEAPNNSKDNIYIQKVYLNGKPYHKSYITYDDIINGSTLKFEMGKKPAKNFGKASANRPIVLNK
[1]; enzyme Bt3773
  Km: 2500 ± 370 µM
  kcat: 0.0183 s⁻¹
  kcat/Km: 7.5 M⁻¹ s⁻¹

B6: Bt2199 (Bacteroides thetaiotaomicron VPI-5482) (protein)
chain: MVTRLFFLSICFPFLLTSCQQSKKTVEFVDYVNPLMGTESTFAFSHGNTYPAVAVPWGMNFWSPQTGENGSGWMYTYTDSLMRGFRQTHQPSPWINDYGTFSIMPLAGELKMSHKERLVPFSHQQEKATPYNYSVTFNNGLQTSLSATSRGAVFEVSFPEKEDQYVVVDAYNGGSSITIEPEKRLVKGATRYNNGGVPDNFANYFMMEFSHPVIEYGTYNGDTLLHHQTDVAADYTCAYLKFDVPAGEKLTIRTASSFISPEQAAINFNREVADADVQLISGKAREQWNNYLGRVEAEGGTDEQLRTFYSCLYRTLLFPREFYEFDSQGNPVYYSPYDGNVHDGYMYTDNGFWDTFRAVHPLFTLLYPEVSERVTQSIINAYNESGFMPEWASPGHRGCMIGNNSVSLLVDAWMKGIQTVDAEKALEAMIHQTQARHAEIASVGRDGFEYYDKLGYVPYPEVPEATAKTLEYAYADWCIARFAESLGKQDIADQYYQKAPNYRNLYYPEHGFMWTKDAKGNWRDRFDATEWGGPFTEGSSWHWTWSVFHDPEGLSELMGGHEPMIARLDSMFVAPNTYNYGTYGFVIHEIAEMVALNMGQYAHGNQPVQHAIYLYDYIGQPWKTQYHLRNVMDKLYNSGSKGYCGDEDNGQTSAWYVFSAMGFYPVCPGMPEYAIGSPLFKKVTLHLPEGKNFVVSAADNAADRPYIRKALLNGQEFTRNYLTHDELKQGGELNLSMDSVPNQQRGTQPADFPYSYSK
[2]; enzyme Bt2199, pH 7.0
  kcat: 0.105 ± 0.00483 s⁻¹
  kcat/Km: 14 M⁻¹ s⁻¹
[3]; enzyme Bt2199, pH 7.0
  kcat: 40 ± 2.33 s⁻¹
  kcat/Km: 60000 M⁻¹ s⁻¹
